From patent US20230117831 come the findings set out here.

Series [1] addresses T1, BRD4 peptide S325.
T1 chain: GQRRESSRPVKPPRR

Series [2] concerns the target T2, BRD4 peptide S358.
T2 chain: EQLKCCSGILKEMRR

The target of series [3] is BRD4-GST (BD1 and BD2 (49-460)) (BPS Bioscience 31044), O60885.
Series [4] addresses T3, BRD4 peptide S338.
T3 chain: KKDVPDSQQHPAPRR

Series [5] has as its target T4, BRD4 peptide T169.
T4 chain: ELPTEETEIMIVQRR

B1: AMPK α1β1γ1-His tag (SignalChem P47-10H) (protein)
chain 1: MRRLSSWRKMATAEKQKHDGRVKIGHYILGDTLGVGTFGKVKVGKHELTGHKVAVKILNRQKIRSLDVVGKIRREIQNLKLFRHPHIIKLYQVISTPSDIFMVMEYVSGGELFDYICKNGRLDEKESRRLFQQILSGVDYCHRHMVVHRDLKPENVLLDAHMNAKIADFGLSNMMSDGEFLRTSCGSPNYAAPEVISGRLYAGPEVDIWSSGVILYALLCGTLPFDDDHVPTLFKKICDGIFYTPQYLNPSVISLLKHMLQVDPMKRATIKDIREHEWFKQDLPKYLFPEDPSYSSTMIDDEALKEVCEKFECSEEEVLSCLYNRNHQDPLAVAYHLIIDNRRIMNEAKDFYLATSPPDSFLDDHHLTRPHPERVPFLVAETPRARHTLDELNPQKSKHQGVRKAKWHLGIRSQSRPNDIMAEVCRAIKQLDYEWKVVNPYYLRVRRKNPVTSTYSKMSLQLYQVDSRTYLLDFRSIDDEITEAKSGTATPQRSGSVSNYRSCQRSDSDAEAQGKSSEVSLTSSVTSLDSSPVDLTPRPGSHTIEFFEMCANLIKILAQ
chain 2: MGNTSSERAALERHGGHKTPRRDSSGGTKDGDRPKILMDSPEDADLFHSEEIKAPEKEEFLAWQHDLEVNDKAPAQARPTVFRWTGGGKEVYLSGSFNNWSKLPLTRSHNNFVAILDLPEGEHQYKFFVDGQWTHDPSEPIVTSQLGTVNNIIQVKKTDFEVFDALMVDSQKCSDVSELSSSPPGPYHQEPYVCKPEERFRAPPILPPHLLQVILNKDTGISCDPALLPEPNHVMLNHLYALSIKDGVMVLSATHRYKKKYVTTLLYKPI
chain 3: METVISSDSSPAVENEHPQETPESNNSVYTSFMKSHRCYDLIPTSSKLVVFDTSLQVKKAFFALVTNGVRAAPLWDSKKQSFVGMLTITDFINILHRYYKSALVQIYELEEHKIETWREVYLQDSFKPLVCISPNASLFDAVSSLIRNKIHRLPVIDPESGNTLYILTHKRILKFLKLFITEFPKPEFMSKSLEELQIGTYANIAMVRTTTPVYVALGIFVQHRVSALPVVDEKGRVVDIYSKFDVINLAAEKTYNNLDVSVTKALQHRSHYFEGVLKCYLHETLETIINRLVEAEVHRLVVVDENDVVKGIVSLSDILQALVLTGGEKKP
With B1, the “ADP-Glo assay, phosphorylation of the peptide by AMPK compared with the SAMS peptide” value in series [1], in series [2], in series [4] and in series [5] was “these peptides showed a 250-fold lower preference for phosphorylation than AMPK's natural ACC substrate-SAMS peptide” each time. Further, the “BRD4 phosphorylation, western blot with phospho-AMPK substrate motif antibody” value in series [3] was “Applicants observed BRD4 phosphorylation only when PHICS, BRD4, and kinase were present”.
